The text below walks through data of PMC6235537 (Science Advances, 2018).

The Kd is a measure of binding affinity in units of concentration. A low value points to tighter binding.

The target of assay [1] is T1, GM^CBM21 (Oryctolagus cuniculus, UniProt Q00756).
T1 sequence (Q00756 102-237): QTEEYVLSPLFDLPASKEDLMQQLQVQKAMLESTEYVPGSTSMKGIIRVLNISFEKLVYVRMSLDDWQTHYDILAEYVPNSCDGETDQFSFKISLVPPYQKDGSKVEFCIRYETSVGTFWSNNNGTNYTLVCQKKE
The assay is described as follows: ITC. In kind it is binding.

Assay [2] concerns the target T2, His6-tagged PP1α_(7–330) (UniProt P62136 7-330). The assay is described as follows: ITC. A general note: Isothermal titration calorimetry measures the heat released or taken up as one component is titrated into another.
In assay [3] the target is His6-tagged PP1β_(6–327) (UniProt P62140 6-327). The assay is described as follows: ITC.
Chain of His6-tagged PP1β_(6–327) (P62140 6-327): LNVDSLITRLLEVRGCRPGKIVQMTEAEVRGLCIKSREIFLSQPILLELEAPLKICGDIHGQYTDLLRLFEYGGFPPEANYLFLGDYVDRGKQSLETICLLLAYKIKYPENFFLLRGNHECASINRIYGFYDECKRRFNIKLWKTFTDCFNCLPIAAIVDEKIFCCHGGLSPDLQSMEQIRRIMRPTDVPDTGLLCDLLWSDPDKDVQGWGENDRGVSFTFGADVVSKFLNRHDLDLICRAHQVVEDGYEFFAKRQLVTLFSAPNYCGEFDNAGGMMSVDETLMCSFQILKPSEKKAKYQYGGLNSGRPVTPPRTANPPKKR
Assay [4] deals with His6-tagged PP1γ_(7–308) (UniProt P36873 7-308). The assay is described as follows: ITC.
Chain of His6-tagged PP1γ_(7–308) (P36873 7-308): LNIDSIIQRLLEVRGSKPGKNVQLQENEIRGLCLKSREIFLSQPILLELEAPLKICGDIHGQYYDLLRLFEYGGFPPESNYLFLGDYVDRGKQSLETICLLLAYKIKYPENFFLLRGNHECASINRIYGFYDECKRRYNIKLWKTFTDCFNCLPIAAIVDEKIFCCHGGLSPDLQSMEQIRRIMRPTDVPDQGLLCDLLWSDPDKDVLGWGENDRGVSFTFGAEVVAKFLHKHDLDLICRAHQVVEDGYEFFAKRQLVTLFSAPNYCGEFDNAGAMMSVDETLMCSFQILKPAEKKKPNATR
Assay [5] concerns the target His6-tagged PP1γ_(7–323) (UniProt P36873 7-323). The assay is described as follows: ITC.
The target in assay [6] is His6-tagged PP1α_(7–300) (UniProt P62136 7-300). The assay is described as follows: ITC.
Chain of His6-tagged PP1α_(7–300) (P62136 7-300): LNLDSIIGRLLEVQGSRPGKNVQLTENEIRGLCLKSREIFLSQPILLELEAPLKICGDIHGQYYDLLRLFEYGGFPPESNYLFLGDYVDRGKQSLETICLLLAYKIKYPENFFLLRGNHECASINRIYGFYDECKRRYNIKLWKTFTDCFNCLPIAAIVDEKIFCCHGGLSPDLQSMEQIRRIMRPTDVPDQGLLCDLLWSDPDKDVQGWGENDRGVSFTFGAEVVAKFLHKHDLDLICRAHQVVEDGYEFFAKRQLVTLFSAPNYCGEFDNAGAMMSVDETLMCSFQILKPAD
Assay [7] addresses T2, His6-tagged PP1α_(7–330). The assay is described as follows: SPR.
The target of assay [8] is PP1α_(7–300) (as crystallised with GM^64–93 and microcystin-LR) (UniProt P62136 7-300). The assay is described as follows: crystal structure.
Chain of PP1α_(7–300) (as crystallised with GM^64–93 and microcystin-LR) (P62136 7-300): as above

T2 sequence (P62136 7-330): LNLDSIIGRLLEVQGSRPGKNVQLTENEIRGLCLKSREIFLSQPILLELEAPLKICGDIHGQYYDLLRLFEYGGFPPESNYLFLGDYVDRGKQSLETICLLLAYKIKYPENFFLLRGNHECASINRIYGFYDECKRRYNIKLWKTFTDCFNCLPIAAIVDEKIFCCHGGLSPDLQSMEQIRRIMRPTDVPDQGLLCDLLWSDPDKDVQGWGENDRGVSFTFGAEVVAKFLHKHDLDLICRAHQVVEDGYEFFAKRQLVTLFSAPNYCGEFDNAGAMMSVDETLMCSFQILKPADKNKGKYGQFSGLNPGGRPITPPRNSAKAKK
Chain of His6-tagged PP1γ_(7–323) (P36873 7-323): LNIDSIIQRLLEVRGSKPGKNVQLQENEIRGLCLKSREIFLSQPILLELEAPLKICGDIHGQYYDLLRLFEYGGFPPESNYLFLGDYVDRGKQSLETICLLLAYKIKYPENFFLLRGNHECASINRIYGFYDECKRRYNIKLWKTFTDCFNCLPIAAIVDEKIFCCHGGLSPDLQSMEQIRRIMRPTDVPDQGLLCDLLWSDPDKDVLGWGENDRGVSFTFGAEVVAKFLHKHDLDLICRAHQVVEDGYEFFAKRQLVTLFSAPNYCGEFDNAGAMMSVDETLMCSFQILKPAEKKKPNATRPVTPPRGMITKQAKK

Molecule `OC[C@H]1O[C@@H]2O[C@H]3[C@H](O)[C@@H](O)[C@@H](O[C@H]4[C@H](O)[C@@H](O)[C@@H](O[C@H]5[C@H](O)[C@@H](O)[C@@H](O[C@H]6[C@H](O)[C@@H](O)[C@@H](O[C@H]7[C@H](O)[C@@H](O)[C@@H](O[C@H]1[C@H](O)[C@H]2O)O[C@@H]7CO)O[C@@H]6CO)O[C@@H]5CO)O[C@@H]4CO)O[C@@H]3CO` [α-CD] returned an equilibrium dissociation constant (Kd) in assay [1] of 27600 nM.
For `OC[C@H]1O[C@@H]2O[C@H]3[C@H](O)[C@@H](O)[C@@H](O[C@H]4[C@H](O)[C@@H](O)[C@@H](O[C@H]5[C@H](O)[C@@H](O)[C@@H](O[C@H]6[C@H](O)[C@@H](O)[C@@H](O[C@H]7[C@H](O)[C@@H](O)[C@@H](O[C@H]8[C@H](O)[C@@H](O)[C@@H](O[C@H]1[C@H](O)[C@H]2O)O[C@@H]8CO)O[C@@H]7CO)O[C@@H]6CO)O[C@@H]5CO)O[C@@H]4CO)O[C@@H]3CO` [β-CD], the Kd in assay [1] stood at 8200 ± 100 nM.

B1: GM^64–237 (domain or fragment)
chain: RRVSFADNFGFNLVSVKEFDTWELPSVSTTFELGKDAFQTEEYVLSPLFDLPASKEDLMQQLQVQKAMLESTEYVPGSTSMKGIIRVLNISFEKLVYVRMSLDDWQTHYDILAEYVPNSCDGETDQFSFKISLVPPYQKDGSKVEFCIRYETSVGTFWSNNNGTNYTLVCQKKE
In the case of B1, the equilibrium dissociation constant (Kd) was 20.8 ± 2.4 nM in assay [2]; 17.3 ± 4 nM in assay [3]; 55.7 ± 5.1 nM in assay [4]; 21.4 ± 11.6 nM in assay [5]; 51 ± 5.1 nM in assay [6]. For the same molecule, the dH in assay [2] was -34.5 ± 2.4 kcal/mol; in assay [3] it was -15.4 ± 0.8 kcal/mol; in assay [4], -13.3 ± 5.2 kcal/mol; in assay [5] it was -22.6 ± 0.1 kcal/mol; in assay [6], -25.1 ± 0.9 kcal/mol.
In assay [7], RRVSFADNFGFNLVSVKEFDTWELPSVSTTFELGKDAFQTEE [GM^64–105 peptide] registered a Kd of 114 ± 4 nM.

B2: GM^2–237 (muscle glycogen-targeting subunit of PP1, PPP1R3A, residues 2 to 237) (domain or fragment)
chain: EPSEVPGQNSKDNFLEVPNLSDSLCEDEEVKAIFKPGFSPQPSRRGSESSEEVYVHTASSGGRRVSFADNFGFNLVSVKEFDTWELPSVSTTFELGKDAFQTEEYVLSPLFDLPASKEDLMQQLQVQKAMLESTEYVPGSTSMKGIIRVLNISFEKLVYVRMSLDDWQTHYDILAEYVPNSCDGETDQFSFKISLVPPYQKDGSKVEFCIRYETSVGTFWSNNNGTNYTLVCQKKE
Turning to B2, in assay [2], the Kd came out at 26.5 ± 2.3 nM and the dH is -20.2 ± 1 kcal/mol.
As to RRVSFADNFGFNLVSVKEFDTWELPSVSTT [GM^64–93 peptide], the binding result in assay [8] was “binds”.
